Target: uncleaved full-length membrane-anchored HIV-1 JR-FL Env(-) glycoprotein (HIV-1 (strain JR-FL))
Experiment: cryo-EM structure

Question: Which stoichiometry N does the source give for “uncleaved full-length membrane-anchored HIV-1 JR-FL Env(-) glycoprotein (natural protein)” here?
Answer: 3

Reference: doi:10.1101/2021.03.28.437443
